Test results taken from the supplement of paper PMC7877785.
± gives the uncertainty stated by the source.

Assay: self-splicing fitness, log relative to wild type (ln ratio); higher = more splicing; Tetrahymena group I intron in knt gene, E. coli kanamycin selection, DiMSum; sequences stand for … in CUCUCU…GGAGGGAAAAGUUAUCAGGCAUGCACCUGGUAGCUAGUCUUUAAACCAAUAGAUUGCAUCGGUUUAAAAGGCAAGACCGUCAAAUUGCGGGAAAGGGGUCAACAGCCGUUCAGUACCAAGUCUCAGGGGAAACUUUGAGAUGGCCUUGCAAAGGGUAUGGUAAUAAGCUGACGGACAUGGUCCUAACCACGCAGCCAAGUCCUAAGUCAACAGAUCUUCUGUUGAUAUGGAUGCAGUUCACAGACUAAAUGUCGGUCGGGGAAGAUGUAUUCUUCUCAUAAGAUAUAGUCGGACCUCUCCUUAAUGGGAGCUAGCGGAUGAAGUGAUGCAACACUGGAGCCGCUGGGAACUAAUUUGUAUGCGAAAGUAUAUUGAUUAGUUUUGGAGUACUCGUGGUCG
Procedure, shortened: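 Six replicate transformations of E. coli BL21(DE3) with a pET-22b(+) library were grown overnight at 37°C or 30°C. The library randomised all eight P1ex-region intron nucleotides, the intron lying in the knt kanamycin-resistance gene, and plates were LB agar with or without 25 μg/mL kanamycin plus 100 μg/mL carbenicillin, 50 μM IPTG and 0.2% rhamnose. Pooled colonies were amplicon-sequenced on an Illumina HiSeq 2500, and fitness is the DiMSum error-weighted combination of wild-type-normalised replicate fold changes, kanamycin versus none.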

Sequence | self-splicing fitness (ln) (30 °C) | self-splicing fitness (ln) (37 °C)
UAGUAGCAAUAUUACGGCCG | 0.0089 ± 0.17 | -0.367 ± 0.23
AAGGAGCAAUAUUACGCCAG | -2.29 ± 0.26 | -3.1 ± 0.35
UACUAGCAAUAUUACGGUAC | -3.01 ± 0.18 | -2.53 ± 0.23
GCCGAGCAAUAUUACGCUCG | -2.94 ± 0.27 | -2.02 ± 0.26
ACACAGCAAUAUUACGUGGG | -3.5 ± 0.098 | -1.88 ± 0.087
AGAUAGCAAUAUUACGGAUA | -4.2 ± 0.42 | -1.23 ± 0.23
AGGUAGCAAUAUUACGGCCG | -0.244 ± 0.018 | 0.0571 ± 0.038
GUUGAGCAAUAUUACGUAGC | -0.983 ± 0.2 | -2.07 ± 0.35
GUUGAGCAAUAUUACGACUA | -2.4 ± 0.18 | -2.85 ± 0.22
CAGUAGCAAUAUUACGCAAC |  | -1.53 ± 0.36
GCACAGCAAUAUUACGACUG | -1.14 ± 0.094 | -0.12 ± 0.093
UGACAGCAAUAUUACGUGGA | -3 ± 0.21 | -2.31 ± 0.2
ACCGAGCAAUAUUACGCCGC | -2.66 ± 0.32 | -2.1 ± 0.29
ACUUAGCAAUAUUACGUUCU | -1.28 ± 0.064 | -0.195 ± 0.087
GAUGAGCAAUAUUACGCUGG | -2.08 ± 0.18 | -1.02 ± 0.3
CACUAGCAAUAUUACGAGUC | -2.82 ± 0.21 | -2.01 ± 0.19
UCGCAGCAAUAUUACGACCA | -1.83 ± 0.13 | -1.07 ± 0.14
CAGGAGCAAUAUUACGCAGG | -2.36 ± 0.078 | -1.37 ± 0.076
UCCUAGCAAUAUUACGACCG | -3.3 ± 0.28 | -3.65 ± 0.34
UUCUAGCAAUAUUACGAACC |  | -1.8 ± 0.33
AAUGAGCAAUAUUACGUCCU | -1.45 ± 0.13 | -0.218 ± 0.12

Sequence | self-splicing fitness (ln) (30 °C) | self-splicing fitness (ln) (37 °C)
CAGUAGCAAUAUUACGCUGA | -2.07 ± 0.24 | -1.95 ± 0.3
CUAUAGCAAUAUUACGCGCC | -1.01 ± 0.43 | 
CCCCAGCAAUAUUACGAACC | -4.18 ± 0.34 | -2.46 ± 0.36
CCUUAGCAAUAUUACGGCAG | -1.83 ± 0.12 | -2.73 ± 0.2
AUGAAGCAAUAUUACGUGAG | -1.27 ± 0.083 | -0.0834 ± 0.12
UGAUAGCAAUAUUACGAAAA | -1.85 ± 0.31 | -2.48 ± 0.4
CGGUAGCAAUAUUACGCGGU | -3.28 ± 0.22 | -2.96 ± 0.16
CUUAAGCAAUAUUACGUAGA | -3.6 ± 0.22 | -2.82 ± 0.34
CGUAAGCAAUAUUACGCGUG | -1.79 ± 0.088 | -0.855 ± 0.12
GUGUAGCAAUAUUACGAAUA | -1.91 ± 0.39 | -1.39 ± 0.43
UGGCAGCAAUAUUACGCGGA | -1.48 ± 0.098 | -0.878 ± 0.095
UGGGAGCAAUAUUACGGACG | -1.52 ± 0.14 | -0.236 ± 0.15
GGGUAGCAAUAUUACGAUUU | -0.0881 ± 0.1 | -0.476 ± 0.099
GCUUAGCAAUAUUACGAUCC | -0.0566 ± 0.1 | 0.226 ± 0.13
CCCAAGCAAUAUUACGCCUC | -2.93 ± 0.25 | -2.93 ± 0.34
UAUCAGCAAUAUUACGUGUA | -0.198 ± 0.069 | 0.204 ± 0.079
GGGAAGCAAUAUUACGCCUA | -0.134 ± 0.2 | -0.887 ± 0.28
CUAGAGCAAUAUUACGCUUC | -2.21 ± 0.42 | -1.97 ± 0.3
UCUAAGCAAUAUUACGGAAU | -4.16 ± 0.46 | -1.64 ± 0.33
GUUCAGCAAUAUUACGCGGU | -1.52 ± 0.11 | -1.69 ± 0.14
ACCCAGCAAUAUUACGAAUU | -1.63 ± 0.075 | -0.951 ± 0.094

Sequence | self-splicing fitness (ln) (30 °C) | self-splicing fitness (ln) (37 °C)
AUCUAGCAAUAUUACGAAAU | -1.81 ± 0.11 | -0.899 ± 0.11
UGAAAGCAAUAUUACGCCCU | -0.195 ± 0.11 | 0.295 ± 0.15
GACGAGCAAUAUUACGAUAG |  | -3.92 ± 0.46
UAUAAGCAAUAUUACGGCCU | -0.92 ± 0.16 | -0.641 ± 0.23
AGGAAGCAAUAUUACGAUAG | -3.02 ± 0.28 | -1.55 ± 0.38
CUCAAGCAAUAUUACGUGGA | -3.76 ± 0.18 | -1.19 ± 0.084
CAGAAGCAAUAUUACGUCAA | -2.46 ± 0.27 | -2.24 ± 0.26
CAGCAGCAAUAUUACGUGUC | -3.31 ± 0.15 | -2.79 ± 0.18
AGGAAGCAAUAUUACGUGUA | -2.06 ± 0.1 | -0.914 ± 0.085
GCACAGCAAUAUUACGAGCG | -1.16 ± 0.066 | -0.171 ± 0.077
AUCUAGCAAUAUUACGAAAG | -3.62 ± 0.27 | -2.15 ± 0.24
GCGAAGCAAUAUUACGAAAC | -1.86 ± 0.35 | -0.819 ± 0.44
CAGGAGCAAUAUUACGCGUA | -2.85 ± 0.16 | -2.03 ± 0.18
UACCAGCAAUAUUACGUAGC | -2.38 ± 0.11 | -1.72 ± 0.14
GCUCAGCAAUAUUACGCCUG | -2.66 ± 0.26 | -2.42 ± 0.32
GUAAAGCAAUAUUACGCAAG | -2.89 ± 0.18 | -0.51 ± 0.12
UACAAGCAAUAUUACGACGA | -0.323 ± 0.065 | 0.0319 ± 0.075
UACAAGCAAUAUUACGAAAG | -2.61 ± 0.11 | -2.37 ± 0.16
GUGUAGCAAUAUUACGAACG | -1.76 ± 0.16 | -0.988 ± 0.23
